Molecular target: prokineticin receptor(s) of guinea pig ileal membrane / ileal smooth muscle (guinea pig)
Experiment: cell-based or functional assay

B1: chimeric prokineticin 21 (exons 1 and 2 of prokineticin 2, exon 3 of prokineticin 1) (ligand)
chain: AVITGACDKDSQCGGGMCCAVSIWVKSIRICTPMGKLGDSCHPLTRKVPFFRKRKHHTCPCLPNLLCSRFPDGRYRCSMDLKNINF
  EC50 of ileal smooth muscle contraction, relative to prokineticin 1 or prokineticin 2: ~8 fold

Reference: patent EP1506971A1 (The Regents of the University of California, dated 2005)
